For experiment [1], the target named is T1, human ROR1 'Ig-Frizzled domain' (human, UniProt Q01973).
T1 construct: used plain or biotinylated
Kind of experiment: Octet. A general note: In BLI a coated tip is dipped into the sample, and binding shifts an interference pattern.

Experiment [2] concerns the target T2, Human ROR2 (human, UniProt Q01974). Put plainly: Octet.
Experiment [3] deals with T3, recombinant human ROR1 extracellular domain protein (human, UniProt Q01973 30-406).
T3 construct: extracellular domain; Analyte in solution in the Octet assay; also called human ROR1 ECD
T3 sequence (Q01973 30-406): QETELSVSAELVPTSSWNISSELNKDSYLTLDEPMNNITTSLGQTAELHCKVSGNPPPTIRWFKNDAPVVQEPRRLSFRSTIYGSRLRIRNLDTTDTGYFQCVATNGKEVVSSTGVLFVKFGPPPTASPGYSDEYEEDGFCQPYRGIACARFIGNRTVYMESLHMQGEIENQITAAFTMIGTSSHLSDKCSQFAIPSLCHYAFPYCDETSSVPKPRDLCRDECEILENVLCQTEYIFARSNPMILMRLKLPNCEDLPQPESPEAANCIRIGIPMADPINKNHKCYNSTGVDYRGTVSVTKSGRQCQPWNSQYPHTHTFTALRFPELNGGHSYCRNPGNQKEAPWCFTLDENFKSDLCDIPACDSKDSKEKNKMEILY
Put plainly: Octet, mono-valent binding to human ROR1. From the text: The heavy and light chain expression plasmids generated from each well were transiently co-transfected to produce rabbit/human chimeric antibodies. Recombinant antibody supernatants were confirmed to contain anti-ROR1 antibodies using bio-layer interferometry analysis on a ForteBio Octet Red 96 instrument. Anti-human Fc biosensors (Pall ForteBio) were used to capture antibodies in the supernatants. Association to ROR1 was observed by real-time interferometry by placing the biosensors in wells containing recombinant human ROR1 extracellular domain protein. Dissociation was measured after transfer of the biosensors into wells containing 10× kinetics buffer (Pall ForteBio). The software provided by the manufacturer was used to analyze the interferometry data.

In experiment [4] the target is T4, human ROR1 'Frizzled-Kringle domain' (human, UniProt Q01973).
T4 construct: used plain or biotinylated
T4 sequence (Q01973 165-406 limits assumed): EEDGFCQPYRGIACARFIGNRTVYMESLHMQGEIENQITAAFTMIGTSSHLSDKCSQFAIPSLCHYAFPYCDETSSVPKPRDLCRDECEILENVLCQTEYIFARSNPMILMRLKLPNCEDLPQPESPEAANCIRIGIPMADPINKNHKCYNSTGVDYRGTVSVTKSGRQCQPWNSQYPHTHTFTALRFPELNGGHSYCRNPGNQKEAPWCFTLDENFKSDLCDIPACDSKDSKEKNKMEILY
Kind of experiment: ELISA, direct coat; BCC supernatant. (In an ELISA, binding on a coated surface is turned into a signal by an enzyme label.)

The target in experiment [5] is T5, mouse ROR1 (serum titer ELISA antigen) (mouse, UniProt Q9Z139 30-403, limits assumed). Kind of experiment: ELISA, direct coat; BCC supernatant.
T5 sequence (Q9Z139 30-403 limits assumed): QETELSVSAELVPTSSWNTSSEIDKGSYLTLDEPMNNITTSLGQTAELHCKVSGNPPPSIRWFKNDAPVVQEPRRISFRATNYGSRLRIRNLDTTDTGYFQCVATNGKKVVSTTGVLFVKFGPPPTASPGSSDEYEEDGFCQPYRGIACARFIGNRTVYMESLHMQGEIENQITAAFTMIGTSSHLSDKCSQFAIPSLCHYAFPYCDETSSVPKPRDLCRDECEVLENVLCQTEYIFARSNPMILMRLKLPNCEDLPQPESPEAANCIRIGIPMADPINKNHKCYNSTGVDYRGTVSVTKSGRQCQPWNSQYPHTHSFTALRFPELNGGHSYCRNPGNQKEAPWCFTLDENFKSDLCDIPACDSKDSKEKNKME
Experiment [6] addresses T1, human ROR1 'Ig-Frizzled domain'. Put plainly: ELISA, direct coat; BCC supernatant.
The target of experiment [7] is Human ROR1-CHO cells (human) (UniProt Q01973). Kind of experiment: FACS; BCC supernatant.
Chain of Human ROR1-CHO cells (human) (Q01973 30-937 limits assumed): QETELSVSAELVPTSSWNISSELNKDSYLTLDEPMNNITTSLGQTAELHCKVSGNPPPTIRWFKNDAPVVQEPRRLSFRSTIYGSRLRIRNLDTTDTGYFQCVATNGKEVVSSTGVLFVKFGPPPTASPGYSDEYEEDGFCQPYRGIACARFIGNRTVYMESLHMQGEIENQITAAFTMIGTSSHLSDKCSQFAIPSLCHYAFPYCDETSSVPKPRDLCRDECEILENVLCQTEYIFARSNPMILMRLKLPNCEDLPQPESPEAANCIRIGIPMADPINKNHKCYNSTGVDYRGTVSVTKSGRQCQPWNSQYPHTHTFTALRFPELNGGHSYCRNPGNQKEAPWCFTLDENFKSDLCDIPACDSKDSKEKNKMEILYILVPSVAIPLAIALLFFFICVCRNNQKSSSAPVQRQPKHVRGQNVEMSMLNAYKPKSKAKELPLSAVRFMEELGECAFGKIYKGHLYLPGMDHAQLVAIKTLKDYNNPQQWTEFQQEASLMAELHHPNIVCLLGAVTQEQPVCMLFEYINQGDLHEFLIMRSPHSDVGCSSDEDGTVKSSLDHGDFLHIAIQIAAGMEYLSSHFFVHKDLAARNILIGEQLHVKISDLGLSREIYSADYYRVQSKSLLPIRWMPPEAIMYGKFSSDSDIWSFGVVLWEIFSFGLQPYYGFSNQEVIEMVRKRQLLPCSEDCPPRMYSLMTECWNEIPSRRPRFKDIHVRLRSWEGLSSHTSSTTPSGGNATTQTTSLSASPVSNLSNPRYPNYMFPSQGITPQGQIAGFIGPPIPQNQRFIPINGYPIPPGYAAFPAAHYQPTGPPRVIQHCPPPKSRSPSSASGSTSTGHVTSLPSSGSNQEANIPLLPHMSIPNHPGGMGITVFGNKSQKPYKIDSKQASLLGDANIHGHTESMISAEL
In experiment [8] the target is recombinant human ROR1 extracellular domain protein (human) (UniProt Q01973). Put plainly: ELISA, direct coat; BCC supernatant.
Chain of recombinant human ROR1 extracellular domain protein (human) (Q01973 30-406): as the sequence (Q01973 30-406) above
The target in a further experiment is Human ROR2 (human) (UniProt Q01974). Put plainly: ELISA, direct coat; BCC supernatant.
Chain of Human ROR2 (human) (Q01974 34-403 limits assumed): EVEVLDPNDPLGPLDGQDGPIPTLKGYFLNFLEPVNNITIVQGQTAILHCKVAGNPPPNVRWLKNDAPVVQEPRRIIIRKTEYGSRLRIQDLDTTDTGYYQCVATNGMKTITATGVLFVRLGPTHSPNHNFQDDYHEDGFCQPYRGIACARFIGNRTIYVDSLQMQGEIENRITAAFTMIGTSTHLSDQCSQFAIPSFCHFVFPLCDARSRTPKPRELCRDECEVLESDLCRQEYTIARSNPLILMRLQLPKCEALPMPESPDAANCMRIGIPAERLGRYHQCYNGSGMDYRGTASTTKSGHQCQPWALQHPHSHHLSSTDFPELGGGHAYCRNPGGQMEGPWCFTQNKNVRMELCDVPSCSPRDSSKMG
For experiment [9], the target named is T4, human ROR1 'Frizzled-Kringle domain'. Kind of experiment: ELISA, biotinylated antigen on avidin plate; BCC supernatant.
The target in experiment [10] is T1, human ROR1 'Ig-Frizzled domain'. Described as above.
In experiment [11] the target is T4, human ROR1 'Frizzled-Kringle domain'. Kind of experiment: Octet.
Experiment [12] has as its target T3, recombinant human ROR1 extracellular …. Put plainly: Octet, bi-valent binding to human ROR1.
The next experiment concerns the target T6, Mouse ROR1-CHO (mouse, UniProt Q9Z139).
T6 construct: expressed on the surface of CHO cells; also called mouse ROR1 on CHO cells
Kind of experiment: FACS, mouse ROR1-CHO.

The target in experiment [13] is T5, mouse ROR1 (serum titer ELISA antigen). Put plainly: Octet.
The target of experiment [14] is T3, recombinant human ROR1 extracellular …. Put plainly: ELISA, direct coat; BCC supernatant.
Experiment [15] concerns the target T2, Human ROR2. Kind of experiment: ELISA, direct coat; BCC supernatant.
The target in experiment [16] is T7, human ROR1 'Kringle domain' (human, UniProt Q01973, biotinylated).
T7 construct: also called biotinylated human ROR1 Kringle domain
T7 sequence (Q01973 308-395 limits assumed): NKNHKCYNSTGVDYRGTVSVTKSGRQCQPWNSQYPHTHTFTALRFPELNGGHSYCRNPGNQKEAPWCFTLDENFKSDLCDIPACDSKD
Kind of experiment: ELISA, biotinylated antigen on avidin plate; BCC supernatant.

T2 sequence (Q01974 34-403 limits assumed): as the sequence (Q01974 34-403 limits assumed) above
T1 sequence (Q01973 30-305 limits assumed): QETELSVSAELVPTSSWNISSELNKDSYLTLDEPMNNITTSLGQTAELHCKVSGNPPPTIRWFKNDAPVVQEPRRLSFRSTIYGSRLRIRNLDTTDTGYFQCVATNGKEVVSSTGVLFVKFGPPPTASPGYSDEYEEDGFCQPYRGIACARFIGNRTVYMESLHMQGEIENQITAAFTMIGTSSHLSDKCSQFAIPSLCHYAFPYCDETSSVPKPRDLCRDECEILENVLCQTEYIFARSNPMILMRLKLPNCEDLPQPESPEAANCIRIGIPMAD
T6 sequence (Q9Z139 30-937 limits assumed): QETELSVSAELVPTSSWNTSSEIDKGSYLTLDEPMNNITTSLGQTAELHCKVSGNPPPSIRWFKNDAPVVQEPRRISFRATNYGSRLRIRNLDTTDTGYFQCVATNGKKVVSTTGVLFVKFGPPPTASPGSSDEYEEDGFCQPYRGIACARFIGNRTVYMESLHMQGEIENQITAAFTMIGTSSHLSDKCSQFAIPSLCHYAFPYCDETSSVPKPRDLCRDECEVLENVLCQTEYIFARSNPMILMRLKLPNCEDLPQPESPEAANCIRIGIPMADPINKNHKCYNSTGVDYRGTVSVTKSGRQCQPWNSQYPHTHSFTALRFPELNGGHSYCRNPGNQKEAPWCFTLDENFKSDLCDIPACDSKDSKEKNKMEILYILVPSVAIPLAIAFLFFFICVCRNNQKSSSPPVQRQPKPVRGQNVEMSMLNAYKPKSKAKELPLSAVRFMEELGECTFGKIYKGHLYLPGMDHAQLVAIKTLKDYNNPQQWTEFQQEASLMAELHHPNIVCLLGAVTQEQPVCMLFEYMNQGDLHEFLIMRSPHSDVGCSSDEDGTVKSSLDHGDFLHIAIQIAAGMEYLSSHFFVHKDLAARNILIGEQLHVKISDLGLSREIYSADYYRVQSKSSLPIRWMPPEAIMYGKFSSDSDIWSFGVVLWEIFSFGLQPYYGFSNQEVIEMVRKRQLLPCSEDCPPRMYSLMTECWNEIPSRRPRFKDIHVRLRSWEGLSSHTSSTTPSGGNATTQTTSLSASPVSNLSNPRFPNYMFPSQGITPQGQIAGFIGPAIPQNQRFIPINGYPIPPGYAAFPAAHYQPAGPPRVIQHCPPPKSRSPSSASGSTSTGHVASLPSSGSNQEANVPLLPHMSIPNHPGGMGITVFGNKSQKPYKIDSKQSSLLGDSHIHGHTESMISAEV

B1: 330F11 chimeric rabbit/human IgG antibody (antibody, V domains shown)
VH: QSVEESGGRLVTPGTPLTLTCTVSGFSLNNYWMSWVRQAPGEGLEWIGTISSGAYTWFATWATGRFTISKTSTTVDLSITSPTTEDTATYFCARYSSTTDWTYFNIWGPGTLVTVSS
VL: DVVMTQTPASVEAAVGGTVTIKCQASQSINNYLAWYQQKPGQPPKLLIYRASTLESGVPSRFKGSGSGTQFTLTISDLECADAATYYCQSYNGVGRTAFGGGTEVEFKR
notes: Rabbit variable regions on human gamma-1 and human kappa constant domains
The term koff denotes a measure of how fast the partners let go of each other. As to B1, the binding result (in experiment [1]; with Human ROR2 [2]) was “no binding” in each case. In [3], the koff is 1.26e-08 s⁻¹.

B2: 324E2 (antibody, V domains shown)
VH: QSVEESGGRLVTPGTPLTLTCTVSGFSLSNNAITWVRQAPGKGLEYIGIISSSGTTYYASWAKGRFTISKTSSTTVDLKMTSLTTEDTATYFCAGAFSVWGPGTLVTVSS
VL: AQVLTQTPSSVSAAVGGTVTINCQSSQSVNNNDLAWFQQKPGQPPKRLIYWASKLASGVPSRFKGSGSGTQFILTISDLECDDAATYYCAGGYSGNIYGFGGGTEVEVK
notes: chimeric counterpart m6; also called rabbit IgG of BCC well 324E2
For the molecule B2, the “ELISA OD450” value was found to be 0.18 OD450 in experiment [4]; 2.17 OD450 in [5]; 1.29 OD450 in experiment [6]; 0.48 OD450 in experiment [8]; 0.21 OD450 in the experiment with Human ROR2 (human); 0.1 OD450 in experiment [9]. Moreover, the “ELISA OD450” value in experiment [10] came to 0.62 OD450. Moreover, the FACS MFI in experiment [7] is 25 MFI.

B3: 324E2 chimeric rabbit/human IgG antibody (antibody, V domains shown)
VH: QSVEESGGRLVTPGTPLTLTCTVSGFSLSNNAITWVRQAPGKGLEYIGIISSSGTTYYASWAKGRFTISKTSSTTVDLKMTSLTTEDTATYFCAGAFSVWGPGTLVTVSS
VL: AQVLTQTPSSVSAAVGGTVTINCQSSQSVNNNDLAWFQQKPGQPPKRLIYWASKLASGVPSRFKGSGSGTQFILTISDLECDDAATYYCAGGYSGNIYGFGGGTEVEVKR
notes: as for B1
As for B3, the binding result (in [11]; with Human ROR2 [2]) was “no binding” each time. Besides, the koff in experiment [12] stood at 0.00572 s⁻¹.

B4: 323H7 chimeric rabbit/human IgG antibody (antibody, V domains shown)
VH: QEQLKESGGGLVTPGGTLTLTCTASGFTISRYHMTWVRQAPGKGLEWIGHIYVNNDDTDYASWAKGRFTISKTSTTVDLKITSPTTEDTATYFCARLDVGGGGAYIGDIWGQGTLVTVSS
VL: QAVVTQTPSSVSAAVGGTVTISCQSSQSVYNNNDLAWYQQKPGQPPKLLIYYASTLASGVSSRFKGSGSGTQFTLAISDLECDDSATYYCAGGYDTDGLDTFAFGGGTEVEVKR
notes: as for B1
Regarding B4, the binding result (with Mouse ROR1-CHO; in experiment [11]; in [13]; in the experiment with Human ROR2 [2]) was “no binding” in each case. The values for the koff in experiment [3] and in experiment [12] were 2.08e-08 s⁻¹ and 0.0062 s⁻¹, respectively.

B5: 324C7 chimeric rabbit/human IgG antibody (antibody, V domains shown)
VH: QSVEESGGRLVTPGTPLTLTCTVSGFSLSGAGVSWVRQAPGKGLEWIGYIDSGATTYYASWAKGRFTISKASTTVDLKIASPTTEDTATYFCARGYYGMDPWGQGTLVTVSS
VL: DIVMTQTPASVEVAVGGTVTIKCQASQNIGSDLAWYQQKPGQPPKLLIYTTSNLASGVPSRFKGSGSGTGFTLTISDLECADAASYCCQGGYFSGRNIYGNAFGGGTEVVVKR
notes: as for B1
B5: the binding result (with Mouse ROR1-CHO; in experiment [11]; in [13]; with Human ROR2 [2]) was “no binding” in each case. The koff in experiment [3] is 1.35e-08 s⁻¹.

B6: 323D10 (antibody, V domains shown)
VH: QSVEESGGRLVTPGTPLTLTCTVSGFSLSRNAMNWVRQAPGKGLEYIGYISTSGTTFYANWVKGRFTISKTSTTVDLKMTSLTTEDTATYFCARDYNYAMDIWGQGTLVTVSS
VL: AIDLTQTPASVEAAVGGTITINCQASESISSWLAWYQQKPGQRPKLLIYETSKLASGVPPRFSGSGSGTQFTLTISGVQCDDAATYYCQSYYRINNIGYDNAFGGGTEVEFK
notes: chimeric counterpart m5; also called rabbit IgG of BCC well 323D10
For B6, the “ELISA OD450” value in experiment [4] worked out at 0.32 OD450; in experiment [5], 4 OD450; in experiment [14], 2.32 OD450; in [6], 1.94 OD450; with Human ROR2 (human) it was 0.23 OD450; in experiment [9] it was 0.17 OD450. In addition, in experiment [10], the “ELISA OD450” value amounted to 2.23 OD450. This molecule also came in with an FACS MFI in [7] of 20 MFI.

B7: 323D10 chimeric rabbit/human IgG antibody (antibody, V domains shown)
VH: QSVEESGGRLVTPGTPLTLTCTVSGFSLSRNAMNWVRQAPGKGLEYIGYISTSGTTFYANWVKGRFTISKTSTTVDLKMTSLTTEDTATYFCARDYNYAMDIWGQGTLVTVSS
VL: AIDLTQTPASVEAAVGGTITINCQASESISSWLAWYQQKPGQRPKLLIYETSKLASGVPPRFSGSGSGTQFTLTISGVQCDDAATYYCQSYYRINNIGYDNAFGGGTEVEFKR
notes: as for B1
As to B7, the binding result (in [11]; with Human ROR2 [2]) was “no binding” each time. The koff in [12] was determined as 0.00961 s⁻¹.

B8: 226E12 (antibody, V domains shown)
VH: QSLEESGGRLVTPGTPLTLTCTASEFSLSNYYMSWVRQAPGEGLEWIGAINADSDNTWYPSWVKGRFTISKTSSTTVDLKITSPTIEDTATYFCARSVSNNFAEYNIWGPGTLVTVSS
VL: AYDMTQTPSSVSAAVGGTVTIKCQASQRIYSYLAWYQQKPGQPPKLLIYRASTLASGVPSRFKGSGSGTEYTLTISDLECADAATYYCQQGASMVDVENMFGGGTEVVVK
notes: chimeric counterpart m2; also called rabbit IgG of BCC well 226E12
Turning to B8, the figures for the “ELISA OD450” value (with Human ROR2 [15]; in [16]) were 0.09 OD450 and 0.41 OD450, respectively.

The values are drawn from patent US20210277109A1 (SYSTIMMUNE, published 2021).
